Source: publication PMC9482650, “Quantitative fragmentomics allow affinity mapping of interactomes” (Nature Communications, 2022)

T1: APBA2_1, Q99767
T1 sequence (Q99767 563-664, limits assumed, looked up): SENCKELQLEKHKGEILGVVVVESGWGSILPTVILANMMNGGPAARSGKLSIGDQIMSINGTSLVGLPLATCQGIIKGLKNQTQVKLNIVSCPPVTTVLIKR

T2: FRMPD1, Q5SYB0
T2 sequence (Q5SYB0 52-145, limits assumed, looked up): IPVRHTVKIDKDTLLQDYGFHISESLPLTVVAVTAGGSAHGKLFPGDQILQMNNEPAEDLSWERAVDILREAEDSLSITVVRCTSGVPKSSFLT

T3: GRIP1_7, Q9Y3R0
T3 sequence (Q9Y3R0 999-1096, limits assumed, looked up): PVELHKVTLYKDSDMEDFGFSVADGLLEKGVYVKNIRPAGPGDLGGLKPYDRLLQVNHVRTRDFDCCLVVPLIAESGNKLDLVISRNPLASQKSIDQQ

T4: NHERF3_3, Q5T2W1
T4 sequence (Q5T2W1 238-333, limits assumed, looked up): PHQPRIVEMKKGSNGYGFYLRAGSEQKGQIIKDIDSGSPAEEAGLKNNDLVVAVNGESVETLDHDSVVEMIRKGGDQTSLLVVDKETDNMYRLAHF

T5: DFNB31_1, Q9P202
T5 sequence (Q9P202 135-233, limits assumed, looked up): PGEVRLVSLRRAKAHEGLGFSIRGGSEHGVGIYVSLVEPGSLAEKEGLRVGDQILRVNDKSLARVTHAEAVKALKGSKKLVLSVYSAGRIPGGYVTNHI

T6: NHERF3_4, Q5T2W1
T6 sequence (Q5T2W1 373-468, limits assumed, looked up): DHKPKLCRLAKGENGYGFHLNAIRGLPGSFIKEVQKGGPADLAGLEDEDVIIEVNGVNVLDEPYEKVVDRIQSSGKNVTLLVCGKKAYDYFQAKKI

T7: APBA1_2, Q02410
T7 sequence (Q02410 742-832, limits assumed, looked up): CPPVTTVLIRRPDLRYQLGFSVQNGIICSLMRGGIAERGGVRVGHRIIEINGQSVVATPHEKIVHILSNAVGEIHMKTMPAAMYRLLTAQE

T8: PTPN13_1, Q12923
T8 sequence (Q12923 1088-1188, limits assumed, looked up): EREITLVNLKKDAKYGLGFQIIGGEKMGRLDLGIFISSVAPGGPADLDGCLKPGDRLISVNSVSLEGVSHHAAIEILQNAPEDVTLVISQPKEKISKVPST

T9: APBA3_1, O96018
T9 sequence (O96018 389-490, limits assumed, looked up): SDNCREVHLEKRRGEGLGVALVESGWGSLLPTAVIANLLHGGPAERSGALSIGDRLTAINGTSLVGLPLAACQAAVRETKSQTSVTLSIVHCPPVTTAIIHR

T10: NHERF3_1, Q5T2W1
T10 sequence (Q5T2W1 4-100, limits assumed, looked up): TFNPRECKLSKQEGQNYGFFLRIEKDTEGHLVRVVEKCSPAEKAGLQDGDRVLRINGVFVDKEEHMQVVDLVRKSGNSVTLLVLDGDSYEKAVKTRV

T11: APBA1_1, Q02410
T11 sequence (Q02410 651-752, limits assumed, looked up): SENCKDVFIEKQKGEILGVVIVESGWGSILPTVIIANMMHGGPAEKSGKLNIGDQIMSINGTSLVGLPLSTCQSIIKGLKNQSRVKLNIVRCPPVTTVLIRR

T12: LRRC7, Q96NW7
T12 sequence (Q96NW7 1440-1537, limits assumed, looked up): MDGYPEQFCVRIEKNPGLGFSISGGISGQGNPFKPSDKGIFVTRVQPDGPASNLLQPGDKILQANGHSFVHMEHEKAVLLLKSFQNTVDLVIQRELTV

B1: JAG1, P78504 (peptide)
chain: QSLNRMEYIV
B2: EPHB3, P54753 (peptide)
chain: QMNQTLPVQV
B3: MYOZ1, Q9NP98 (peptide)
chain: IPLDGETEEL
B4: TMEM151B, Q8IW70 (peptide)
chain: RHGSCVETSL

Columns and labels:
Assay in all cases: holdup assay
Parameters in all cases: key: below the threshold = too weak to quantify, mostly under pKd 3.1 to 4
Settings in all cases: plain residues with an end cap or a label only (N-terminal biotin on a linker: ado-ado)
HTRA2, O43464 = target: HTRA2, O43464
DLG2_3, Q15700 = target: DLG2_3, Q15700
APBA2_1, Q99767 = target: T1, APBA2_1, Q99767
FRMPD1, Q5SYB0 = target: T2, FRMPD1, Q5SYB0
GRIP1_7, Q9Y3R0 = target: T3, GRIP1_7, Q9Y3R0
GRIP2_7, Q9C0E4 = target: GRIP2_7, Q9C0E4
GRID2IP_1, A4D2P6 = target: GRID2IP_1, A4D2P6
NHERF3_3, Q5T2W1 = target: T4, NHERF3_3, Q5T2W1
DFNB31_1, Q9P202 = target: T5, DFNB31_1, Q9P202
DLG1_2, Q12959 = target: DLG1_2, Q12959
IL16_4, Q14005 = target: IL16_4, Q14005
Inadl_5, Q8NI35 = target: Inadl_5, Q8NI35
NHERF3_4, Q5T2W1 = target: T6, NHERF3_4, Q5T2W1
APBA1_2, Q02410 = target: T7, APBA1_2, Q02410
DLG1_1, Q12959 = target: DLG1_1, Q12959
PTPN13_1, Q12923 = target: T8, PTPN13_1, Q12923
FRMPD3, Q5JV73 = target: FRMPD3, Q5JV73
APBA3_1, O96018 = target: T9, APBA3_1, O96018
NHERF3_1, Q5T2W1 = target: T10, NHERF3_1, Q5T2W1
APBA1_1, Q02410 = target: T11, APBA1_1, Q02410
DLG1_3, Q12959 = target: DLG1_3, Q12959
FRMPD4, Q14CM0 = target: FRMPD4, Q14CM0
Inadl_2, Q8NI35 = target: Inadl_2, Q8NI35
LRRC7, Q96NW7 = target: T12, LRRC7, Q96NW7
MAGI2_2, Q86UL8 = target: MAGI2_2, Q86UL8
MAGI2_3, Q86UL8 = target: MAGI2_3, Q86UL8
Sequence of MAGI2_3, Q86UL8 (Q86UL8 600-682): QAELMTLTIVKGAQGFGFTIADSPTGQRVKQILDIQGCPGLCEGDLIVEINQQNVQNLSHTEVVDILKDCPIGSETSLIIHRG

Sequence of FRMPD4, Q14CM0 (Q14CM0 67-160): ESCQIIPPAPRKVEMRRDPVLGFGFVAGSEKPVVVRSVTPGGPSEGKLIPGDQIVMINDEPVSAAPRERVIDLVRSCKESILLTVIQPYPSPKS
Sequence of GRID2IP_1, A4D2P6 (A4D2P6 1-87): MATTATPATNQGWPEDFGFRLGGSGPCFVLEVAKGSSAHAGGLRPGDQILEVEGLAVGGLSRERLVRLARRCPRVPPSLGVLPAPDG
Sequence of GRIP2_7, Q9C0E4 (Q9C0E4 934-1023): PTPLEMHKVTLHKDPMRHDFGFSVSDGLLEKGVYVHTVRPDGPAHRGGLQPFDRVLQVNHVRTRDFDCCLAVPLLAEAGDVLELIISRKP
Sequence of Inadl_2, Q8NI35 (Q8NI35 238-335): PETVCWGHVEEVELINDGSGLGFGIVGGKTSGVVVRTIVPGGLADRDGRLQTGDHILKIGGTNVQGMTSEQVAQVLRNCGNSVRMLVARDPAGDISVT
Sequence of HTRA2, O43464 (O43464 355-458): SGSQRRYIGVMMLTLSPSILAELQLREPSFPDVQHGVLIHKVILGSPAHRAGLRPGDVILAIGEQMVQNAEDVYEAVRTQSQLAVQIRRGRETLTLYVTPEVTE
Sequence of FRMPD3, Q5JV73 (Q5JV73 12-100): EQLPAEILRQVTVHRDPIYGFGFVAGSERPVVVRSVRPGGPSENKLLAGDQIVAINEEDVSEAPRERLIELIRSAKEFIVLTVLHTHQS
Sequence of MAGI2_2, Q86UL8 (Q86UL8 410-522): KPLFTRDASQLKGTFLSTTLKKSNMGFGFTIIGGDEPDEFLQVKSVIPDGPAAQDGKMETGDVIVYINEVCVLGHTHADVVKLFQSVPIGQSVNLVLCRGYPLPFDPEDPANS
Sequence of Inadl_5, Q8NI35 (Q8NI35 673-780): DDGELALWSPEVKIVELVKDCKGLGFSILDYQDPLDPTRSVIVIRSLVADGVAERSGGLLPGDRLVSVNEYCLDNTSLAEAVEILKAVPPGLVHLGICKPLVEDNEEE
Sequence of IL16_4, Q14005 (Q14005 1229-1329): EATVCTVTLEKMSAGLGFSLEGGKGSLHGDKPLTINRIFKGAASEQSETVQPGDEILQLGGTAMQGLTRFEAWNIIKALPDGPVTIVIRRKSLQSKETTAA

Binder	pKd (HTRA2, O43464)	pKd (DLG2_3, Q15700)	pKd (APBA2_1, Q99767)	pKd (FRMPD1, Q5SYB0)	pKd (GRIP1_7, Q9Y3R0)	pKd (GRIP2_7, Q9C0E4)	pKd (GRID2IP_1, A4D2P6)	pKd (NHERF3_3, Q5T2W1)	pKd (DFNB31_1, Q9P202)	pKd (DLG1_2, Q12959)	pKd (IL16_4, Q14005)	pKd (Inadl_5, Q8NI35)	pKd (NHERF3_4, Q5T2W1)	pKd (APBA1_2, Q02410)	pKd (DLG1_1, Q12959)	pKd (PTPN13_1, Q12923)	pKd (FRMPD3, Q5JV73)	pKd (APBA3_1, O96018)	pKd (NHERF3_1, Q5T2W1)	pKd (APBA1_1, Q02410)	also measured
B1	3.88	3.96	below the threshold	below the threshold	below the threshold	4.33	below the threshold	below the threshold	below the threshold	below the threshold	below the threshold	4.86	below the threshold	below the threshold	below the threshold	below the threshold	below the threshold	below the threshold	below the threshold	below the threshold	pKd (DLG1_3, Q12959): below the threshold; pKd (FRMPD4, Q14CM0): below the threshold; pKd (Inadl_2, Q8NI35): 4.77; pKd (LRRC7, Q96NW7): below the threshold; pKd (MAGI2_2, Q86UL8): 3.91; pKd (MAGI2_3, Q86UL8): below the threshold
B2	3.59	below the threshold	below the threshold	below the threshold	below the threshold	3.58	below the threshold	below the threshold	3.51	below the threshold	3.77	4.1	3.48	4.8	below the threshold	below the threshold	below the threshold	below the threshold	3.48	below the threshold	pKd (DLG1_3, Q12959): 3.76; pKd (FRMPD4, Q14CM0): below the threshold; pKd (Inadl_2, Q8NI35): below the threshold; pKd (LRRC7, Q96NW7): below the threshold; pKd (MAGI2_2, Q86UL8): below the threshold; pKd (MAGI2_3, Q86UL8): 3.64
B3	below the threshold	below the threshold	below the threshold	below the threshold	below the threshold	below the threshold	below the threshold	below the threshold	below the threshold	below the threshold	below the threshold	below the threshold	below the threshold	below the threshold	below the threshold	below the threshold	below the threshold	below the threshold	3.48	below the threshold	pKd (DLG1_3, Q12959): below the threshold; pKd (FRMPD4, Q14CM0): 4.03; pKd (Inadl_2, Q8NI35): below the threshold; pKd (LRRC7, Q96NW7): below the threshold; pKd (MAGI2_2, Q86UL8): below the threshold; pKd (MAGI2_3, Q86UL8): below the threshold
B4	below the threshold	4.19	below the threshold	below the threshold	below the threshold	below the threshold	below the threshold	below the threshold	4.61	4.88	3.61	below the threshold	3.95	3.97	4.23	below the threshold	3.5	below the threshold	5.38	below the threshold	pKd (DLG1_3, Q12959): 4.1; pKd (FRMPD4, Q14CM0): 4.51; pKd (Inadl_2, Q8NI35): below the threshold; pKd (LRRC7, Q96NW7): 4.08; pKd (MAGI2_2, Q86UL8): 3.66; pKd (MAGI2_3, Q86UL8): 3.5
